One series addresses T1, HUβ (UniProt P0ACF4).
T1 sequence: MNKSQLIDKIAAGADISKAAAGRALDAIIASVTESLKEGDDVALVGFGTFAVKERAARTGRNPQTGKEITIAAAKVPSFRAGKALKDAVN
The series can be described thus: EMSA. A general note: Mobility shift assays separate free from complexed probe on a gel.

In the next series the target is T2, HUα (UniProt P0ACF0).
T2 sequence: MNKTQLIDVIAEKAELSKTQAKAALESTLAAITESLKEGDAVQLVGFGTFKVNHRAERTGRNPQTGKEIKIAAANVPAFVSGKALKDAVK
Briefly: EMSA.

As to “CCCATACTGAATATACACTTGAGAGTATTTATAATTTGTATCTTGAATTGTCAAACCAAGTGCAACGATTTTTTGAAGTAAACTTCATAAGGTGTTTTCCAACCTAAACATTTACGTGGTCGTAAATTCAGTTT (double strand) [IRR-FAM-Long]”, the binding result in the series with HUβ and in the series with HUα was “binds” in each case.

Take “AAACTGAATTTACGACCACGTAAATGTTTAGGTTGGAAAACACCTTATGAAGTTTACTTCAAAAAA (double strand) [IRR-FAM-NO-IRR]”: the binding signal result with HUβ and in the series with HUα was “binds more weakly” throughout.

Take “GGCAGTCGTTGATAGTGGATGGCGGCTTTATGTTGGCGAATCCACAGTTCAACCCAGAATAGCGCAGTGAGGTGCGTGGATATTTCATTGGGGCTGAATTTACAATCCAAGTGCAACAAAAAAAGAAGTACTCATCAACTAGAATATAATTTTGTTTCCACACAAAAACCATTTCCAAATGATGAGTACTTCCTACCGACATCTTACAATAAACGAGCGAGAAAAGATAATGATTTTACTCGCACAGGGC (double strand) [IRL-FAM-Long (ISApl1 promoter)]”: the binding entry in the series with HUβ and in the series with HUα was “binds” each time.

“CTTGAATTGTCAAACCAAGTGCAACGATTTTTTGAAGTAAACTTCATAAGGTGTTTTCCAACCTAAACATTTACGTGGTCGTAAATTCAGTTT (double strand) [IRR-FAM-WT]”: the binding entry with HUβ and with HUα was “binds” throughout.

(Values after article PMC10916398.)
